Measurements taken from patent publication US20210238276A1 (INTEGRAL MOLECULAR, published 2021).
Where a chain is given by its changes, count along the chain named.

T1: hsGLUT4 P66A (human, UniProt P14672 1-509)
T1 sequence: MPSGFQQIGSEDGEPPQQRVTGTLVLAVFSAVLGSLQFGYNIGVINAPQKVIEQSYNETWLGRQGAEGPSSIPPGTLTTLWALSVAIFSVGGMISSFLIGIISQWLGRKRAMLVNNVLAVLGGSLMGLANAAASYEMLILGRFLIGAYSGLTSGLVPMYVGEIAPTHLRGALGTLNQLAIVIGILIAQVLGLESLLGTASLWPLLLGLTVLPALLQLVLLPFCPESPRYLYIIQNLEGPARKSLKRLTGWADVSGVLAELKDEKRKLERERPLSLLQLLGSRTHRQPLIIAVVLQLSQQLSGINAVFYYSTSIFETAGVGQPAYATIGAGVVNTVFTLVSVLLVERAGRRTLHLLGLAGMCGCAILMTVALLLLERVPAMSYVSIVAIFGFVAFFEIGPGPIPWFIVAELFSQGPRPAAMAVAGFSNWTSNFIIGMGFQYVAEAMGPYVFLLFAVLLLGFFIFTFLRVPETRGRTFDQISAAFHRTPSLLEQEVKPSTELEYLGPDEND

T2: hsGLUT4 L296A (human, UniProt P14672 1-509)
T2 sequence: T1 sequence with A66P, L296A

T3: hsGLUT4 E507A (human, UniProt P14672 1-509)
T3 sequence: T1 sequence with A66P, E507A

T4: hsGLUT4 Q298A (human, UniProt P14672 1-509)
T4 sequence: T1 sequence with A66P, Q298A

B1: AB111 (Fc fusion)
scFv: ALTQPSSVSANPGETVKITCSGSGSWYGWFQQKSPGSAPVTVIYSNDKRPSDIPSRFSGSKSGSTSTLTITGVQVEDEAVYYCGNWDIFGAGTTLTVLGQSSRSSGGGGSSGGGGSAVTLDESGGGLQTPGGALSLVCKASGFTFSSHGMGWVRQAPGKGLEWVASISTGRYTFYAPAVKGRATISRDNGQSTVRLQLNNLRAEDTATYYCTKCAGLNGCGGGEIDAWGHGTEVIVSS
notes: Bivalent scFv-Fc; also called MAb AB111; not shown: Fc fragment of human IgG1, cloned in frame with the scFv
B2: AB101 (scFv)
scFv: ALTQPSSVSANPGETVKITCSGSSNSYGWYQQKSPGSAPVTVIYYNDKRPSDIPSRFSGSKSDSTHTLTITGVRAEDEAVYFCGSYDSTYVGIFGAGTTLTVLGQSSRSSGGGGSSGGGGSAVTLDESGGGLQTPGGTLSLVCKASGFTFSSNAMGWVRQAPGKGLEWVAGISSDGRYTKYGSAVKGRATISRDNGQSTVRLQLNNLRAEDTGTYFCAKAFGNNYRRIYAGQIDAWGHGTEVIVSS
notes: Chicken-derived clone used as a control; the four lead clones were tested as scFv-human IgG1 Fc; also called MAb AB101
B3: AB108 (Fc fusion)
scFv: ALTQPSSVSANLGGTVKITCSGSSGSYGWYQQKAPGSAPVTLIYRNDKRPSDIPSRFSGSESGSTGTLTITGVQAEDEAVYFCGGYDSSAGYAAFGAGTTLTVLGQSSRSSGGGGSSGGGGSAVTLDESGGGLQTPGGALSLVCKASGFTFSSHGMGWVRQAPGKGLEWVGSISTGRYTFYAPAVKGRATISRDNGQSTLRLQLNNLRAEDTGTYYCTKCAGLNGCGGGEIDAWGHGTEVIVSS
notes: Bivalent scFv-Fc; also called MAb AB108; not shown: Fc fragment of human IgG1, cloned in frame with the scFv

Key:
Assay in all cases: flow cytometry, alanine-scan library in HEK-293T
hsGLUT4 P66A = biological target: T1, hsGLUT4 P66A
Procedure, shortened: (§1)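 HEK-293T cells expressing individual GLUT4 alanine mutants were stained 48 h post-transfection with anti-GLUT4 scFv MAbs (2 μg/ml), then biotinylated secondary and streptavidin-PerCP, and read by high-throughput flow cytometry. Where used, cytochalasin B (10 uM final) was given for 30 min before and during primary antibody staining.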

hsGLUT4 L296A = biological target: T2, hsGLUT4 L296A
Procedure, shortened: as §1

hsGLUT4 E507A = biological target: T3, hsGLUT4 E507A
Procedure, shortened: as §1

hsGLUT4 Q298A = biological target: T4, hsGLUT4 Q298A
Procedure, shortened: as §1

| Molecule | % of binding to wild type GLUT4 (hsGLUT4 P66A) | % of binding to wild type GLUT4 (hsGLUT4 L296A) | % of binding to wild type GLUT4 (hsGLUT4 E507A) | % of binding to wild type GLUT4 (hsGLUT4 Q298A) |
| --- | --- | --- | --- | --- |
| 1F8 (antibody) | 78% | 105% | 127% | 87% |
| B1 | 90% | 144% | 119% | 145% |
| B2 | 91% | 90% | 5% | 107% |
| B3 | 11% | 72% | 53% | 78% |
